The record followed here is the Human Domainome abundance scans (Beltran et al. 2025).

Sequences and labels used below:
B1: Ankyrin repeat and SOCS box protein 14, residues 532 to 572; numbered along this chain, A6NK59 (parent)
chain: RSLKHLCRLKIRKCMGRLHLRCPVFMSFLPLPNRLKAYVLY

± gives the uncertainty stated by the source.

The variants in the series derive from B1. The experiment in a line: abundance fitness (aPCA) (normalised: wild type 0, dead -1); higher = more abundant; growth selection in yeast, the domain comes from the species named. Conditions: Homo sapiens.
With RILKHLCRLKIRKCMGRLHLRCPVFMSFLPLPNRLKAYVLY, the abundance fitness amounted to 0.335 ± 0.14.
The value for RLLKHLCRLKIRKCMGRLHLRCPVFMSFLPLPNRLKAYVLY was 0.136 ± 0.051; that for RVLKHLCRLKIRKCMGRLHLRCPVFMSFLPLPNRLKAYVLY was -0.339 ± 0.066.
With RMLKHLCRLKIRKCMGRLHLRCPVFMSFLPLPNRLKAYVLY, the abundance fitness turned out to be 0.48 ± 0.36.
The value for RCLKHLCRLKIRKCMGRLHLRCPVFMSFLPLPNRLKAYVLY was -0.572 ± 0.17; that for RDLKHLCRLKIRKCMGRLHLRCPVFMSFLPLPNRLKAYVLY was 0.299 ± 0.23; that for RELKHLCRLKIRKCMGRLHLRCPVFMSFLPLPNRLKAYVLY was -0.057 ± 0.09.
The value for RALKHLCRLKIRKCMGRLHLRCPVFMSFLPLPNRLKAYVLY was -0.37 ± 0.078.
With RTLKHLCRLKIRKCMGRLHLRCPVFMSFLPLPNRLKAYVLY the figure was -0.196 ± 0.093; with ESLKHLCRLKIRKCMGRLHLRCPVFMSFLPLPNRLKAYVLY, -0.033 ± 0.088.
As for TSLKHLCRLKIRKCMGRLHLRCPVFMSFLPLPNRLKAYVLY, the abundance fitness was -0.372 ± 0.29.
For ASLKHLCRLKIRKCMGRLHLRCPVFMSFLPLPNRLKAYVLY, the abundance fitness is -0.414 ± 0.077.
Regarding CSLKHLCRLKIRKCMGRLHLRCPVFMSFLPLPNRLKAYVLY, the abundance fitness was -0.113 ± 0.076.
The value for WSLKHLCRLKIRKCMGRLHLRCPVFMSFLPLPNRLKAYVLY was 0.045 ± 0.074; that for KSLKHLCRLKIRKCMGRLHLRCPVFMSFLPLPNRLKAYVLY was -0.107 ± 0.094; that for VSLKHLCRLKIRKCMGRLHLRCPVFMSFLPLPNRLKAYVLY was -0.1 ± 0.14.
With GSLKHLCRLKIRKCMGRLHLRCPVFMSFLPLPNRLKAYVLY the figure was -0.042 ± 0.047; with SSLKHLCRLKIRKCMGRLHLRCPVFMSFLPLPNRLKAYVLY, -0.39 ± 0.091; with NSLKHLCRLKIRKCMGRLHLRCPVFMSFLPLPNRLKAYVLY, 0.093 ± 0.13.
With FSLKHLCRLKIRKCMGRLHLRCPVFMSFLPLPNRLKAYVLY, the abundance fitness was found to be 0.243 ± 0.065.
The value for MSLKHLCRLKIRKCMGRLHLRCPVFMSFLPLPNRLKAYVLY was 0.386 ± 0.36.
On to RSHKHLCRLKIRKCMGRLHLRCPVFMSFLPLPNRLKAYVLY, for which the abundance fitness was -0.878 ± 0.29.
On to RSVKHLCRLKIRKCMGRLHLRCPVFMSFLPLPNRLKAYVLY, for which the abundance fitness is -0.547 ± 0.075.
The value for RSWKHLCRLKIRKCMGRLHLRCPVFMSFLPLPNRLKAYVLY was 0.011 ± 0.056; that for RSEKHLCRLKIRKCMGRLHLRCPVFMSFLPLPNRLKAYVLY was -0.142 ± 0.058.
Consider RSDKHLCRLKIRKCMGRLHLRCPVFMSFLPLPNRLKAYVLY, for which the abundance fitness is -0.331 ± 0.1.
The value for RSQKHLCRLKIRKCMGRLHLRCPVFMSFLPLPNRLKAYVLY was -0.655 ± 0.09; that for RSKKHLCRLKIRKCMGRLHLRCPVFMSFLPLPNRLKAYVLY was -0.575 ± 0.12.
The value for RSRKHLCRLKIRKCMGRLHLRCPVFMSFLPLPNRLKAYVLY was -0.759 ± 0.078.
As for RSPKHLCRLKIRKCMGRLHLRCPVFMSFLPLPNRLKAYVLY, the abundance fitness was -0.949 ± 0.13.
Turning to RSMKHLCRLKIRKCMGRLHLRCPVFMSFLPLPNRLKAYVLY, the abundance fitness was -0.163 ± 0.071.
With RSAKHLCRLKIRKCMGRLHLRCPVFMSFLPLPNRLKAYVLY the figure was -0.939 ± 0.099; with RSNKHLCRLKIRKCMGRLHLRCPVFMSFLPLPNRLKAYVLY, -0.529 ± 0.12; with RSCKHLCRLKIRKCMGRLHLRCPVFMSFLPLPNRLKAYVLY, -0.517 ± 0.084.
With RSGKHLCRLKIRKCMGRLHLRCPVFMSFLPLPNRLKAYVLY the figure was -0.686 ± 0.055; with RSTKHLCRLKIRKCMGRLHLRCPVFMSFLPLPNRLKAYVLY, -0.668 ± 0.092; with RSLNHLCRLKIRKCMGRLHLRCPVFMSFLPLPNRLKAYVLY, -0.344 ± 0.13.
With RSLWHLCRLKIRKCMGRLHLRCPVFMSFLPLPNRLKAYVLY the figure was 0.051 ± 0.058; with RSLQHLCRLKIRKCMGRLHLRCPVFMSFLPLPNRLKAYVLY, -0.425 ± 0.083; with RSLVHLCRLKIRKCMGRLHLRCPVFMSFLPLPNRLKAYVLY, -0.174 ± 0.063.
Consider RSLAHLCRLKIRKCMGRLHLRCPVFMSFLPLPNRLKAYVLY, for which the abundance fitness amounted to 0.041 ± 0.053.
With RSLYHLCRLKIRKCMGRLHLRCPVFMSFLPLPNRLKAYVLY the figure was 0.34 ± 0.2; with RSLDHLCRLKIRKCMGRLHLRCPVFMSFLPLPNRLKAYVLY, -0.808 ± 0.36; with RSLGHLCRLKIRKCMGRLHLRCPVFMSFLPLPNRLKAYVLY, -0.157 ± 0.048.
With RSLRHLCRLKIRKCMGRLHLRCPVFMSFLPLPNRLKAYVLY the figure was -0.155 ± 0.05; with RSLMHLCRLKIRKCMGRLHLRCPVFMSFLPLPNRLKAYVLY, -0.002 ± 0.068.
With RSLTHLCRLKIRKCMGRLHLRCPVFMSFLPLPNRLKAYVLY the figure was 0.031 ± 0.061.
Turning to RSLPHLCRLKIRKCMGRLHLRCPVFMSFLPLPNRLKAYVLY, the abundance fitness is -0.233 ± 0.096.
Consider RSLEHLCRLKIRKCMGRLHLRCPVFMSFLPLPNRLKAYVLY, for which the abundance fitness is -0.596 ± 0.072.
With RSLSHLCRLKIRKCMGRLHLRCPVFMSFLPLPNRLKAYVLY the figure was -0.135 ± 0.086; with RSLLHLCRLKIRKCMGRLHLRCPVFMSFLPLPNRLKAYVLY, 0.157 ± 0.062.
